This assay has as its target T1, CS1 recombinant protein (SEQ ID NO: 97), plate-bound.
T1 chain: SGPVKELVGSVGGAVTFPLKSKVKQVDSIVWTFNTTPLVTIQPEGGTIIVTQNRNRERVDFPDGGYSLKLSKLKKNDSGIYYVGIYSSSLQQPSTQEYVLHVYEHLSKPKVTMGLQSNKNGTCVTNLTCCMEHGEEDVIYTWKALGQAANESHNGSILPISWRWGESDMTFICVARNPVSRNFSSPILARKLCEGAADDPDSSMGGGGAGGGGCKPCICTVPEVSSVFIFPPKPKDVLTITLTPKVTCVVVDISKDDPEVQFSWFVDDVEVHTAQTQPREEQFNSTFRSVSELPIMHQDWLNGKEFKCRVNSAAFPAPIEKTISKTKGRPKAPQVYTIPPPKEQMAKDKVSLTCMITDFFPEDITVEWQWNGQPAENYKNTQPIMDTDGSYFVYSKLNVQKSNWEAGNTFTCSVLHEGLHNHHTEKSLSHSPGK
Put plainly: cell-based or functional assay.

We go through one molecule from patent publication US20250281613A1 (CELLECTIS S A, published 2025).

B1: CS1-specific second generation CAR (SEQ ID NO: 96) on T cells (other)
chain: QVQLQQPGAELVRPGASVKLSCKASGYSFTTYWMNWVKQRPGQGLEWIGMIHPSDSETRLNQKFKDKATLTVDKSSSTAYMQLSSPTSEDSAVYYCARSTMIATRAMDYWGQGTSVTVSSGGGGSGGGGSGGGGSDIVMTQSQKSMSTSVGDRVSITCKASQDVITGVAWYQQKPGQSPKLLIYSASYRYTGVPDRFTGSGSGTDFTFTISNVQAEDLAVYYCQQHYSTPLTFGAGTKLELKTTTPAPRPPTPAPTIASQPLSLRPEACRPAAGGAVHTRGLDFACDIYIWAPLAGTCGVLLLSLVITLYCKRGRKKLLYIFKQPFMRPVQTTQEEDGCSCRFPEEEEGGCELRVKFSRSADAPAYQQGQNQLYNELNLGRREEYDVLDKRRGRDPEMGGKPRRKNPQEGLYNELQKDKMAEAYSEIGMKGERRRGKGHDGLYQGLSTATKDTYDALHMQALPPR
Regarding B1, the “RNA-seq of CAR+ T cells 24 h after activation on plate-bound CS1 protein versus unactivated cells: genes induced (fold change greater than 5)” value turned out to be 159 genes.
